Results as given in paper PMC4058633 (Nature protocols, 2013).

Molecular target: the molecule itself
Assay: native MS

B1: pentameric ligand-gated ion channel of Erwinia chrysanthemi (ELIC) (natural protein)
chain: APADNAADARPVDVSVSIFINKIYGVNTLEQTYKVDGYIVAQWTGKPRKTPGDKPLIVENTQIERWINNGLWVPALEFINVVGSPDTGNKRLMLFPDGRVIYNARFLGSFSNDMDFRLFPFDRQQFVLELEPFSYNNQQLRFSDIQVYTENIDNEEIDEWWIRKASTHISDIRYDHLSSVQPNQNEFSRITVRIDAVRNPSYYLWSFILPLGLIIAASWSVFWLESFSERLQTSFTLMLTVVAYAFYTSNILPRLPYTTVIDQMIIAGYGSIFAAILLIIFAHHRQAMGVEDDLLIQRCRLAFPLGFLAIGCVLVIRGITL
stoichiometry N: 5
